The numbers were not newly measured in PMC7096212, which cites them from elsewhere.

The Kd is the constant that tells how readily two partners part at equilibrium.

In data set [1] the target is DILP-5 (Drosophila melanogaster) (UniProt Q7KUD5).
The target in another data set is insulin (Homo sapiens) (UniProt P01308).
The target in a further data set is IGF-1 (Homo sapiens) (UniProt P05019).
Chain of UniProt P05019 (P05019 49-118): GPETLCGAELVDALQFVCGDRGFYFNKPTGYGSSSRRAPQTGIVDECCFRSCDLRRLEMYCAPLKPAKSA

Chain of UniProt Q7KUD5 (Q7KUD5 23-50, chain 1 of 2): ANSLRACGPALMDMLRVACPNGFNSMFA
Chain of UniProt Q7KUD5 (Q7KUD5 84-108, chain 2 of 2): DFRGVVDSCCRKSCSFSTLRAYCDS
Chain of UniProt P01308 (P01308 90-110): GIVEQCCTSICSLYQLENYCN

Regarding IBP (from UniProt Q09024), the results for the Kd (in data set [1]; in the data set with insulin (Homo sapiens); with IGF-1 (Homo sapiens)) were 2 nM, 135 nM and 13.6 nM, respectively.
